From FireProtDB (doi:10.1002/cbic.201402128)
Where “and” joins values, the source holds several entries; their conditions need not be identical. Equal entries are not always repeated.

B1: Haloalkane dehalogenase, D4Z2G1 (parent)
chain: MSLGAKPFGEKKFIEIKGRRMAYIDEGTGDPILFQHGNPTSSYLWRNIMPHCAGLGRLIACDLIGMGDSDKLDPSGPERYAYAEHRDYLDALWEALDLGDRVVLVVHDWGSALGFDWARRHRERVQGIAYMEAIAMPIEWADFPEQDRDLFQAFRSQAGEELVLQDNVFVEQVLPGLILRPLSEAEMAAYREPFLAAGEARRPTLSWPRQIPIAGTPADVVAIARDYAGWLSESPIPKLFINAEPGALTTGRMRDFCRTWPNQTEITVAGAHFIQEDSPDEIGAAIAAFVRRLRPA

Variants of: B1
Conditions: Sphingobium indicum (strain DSM 16413 / CCM 7287 / MTCC 6362 / UT26 / NBRC 101211 / UT26S); pH 7.5; Thermal; fluorescence; Na-Hepes 50 mM; reversible: no; structure 1MJ5; whole UniProt chain shown

| Variant | Tm | change of melting temperature, mutant - wild type (higher = more stable) |
| --- | --- | --- |
| MSLGAKPFGEKKFIEIKGRRMAYIDEGTGHPILFQHGNPTSSYLWRNIMPHCAGLGRLIACDLIGMGDSDKLDPSGPERYAYAEHRDYLDALWEALDLGDRVVLVVHDWGSALGFDWARRHRERVQGIAYMEAIAMPIEWADFPEQDRDLFQAFRSQAGEELVLQDNVFVEQVLPGLILRPLSEAEMAAYREPFLAAGEARRPTLSWPRQIPIAGTPADVVAIARDYAGWLSESPIPKLFINAEPGALTTGRMRDFCRTWPNQTEITVAGAHFIQEDSPDEIGAAIAAFVRRLRPA [D30H] | 51 °C | 0 °C |
| MSLGAKPFGEKKFIEIKGRRMAYIDEGTGAPILFQHGNPTSSYLWRNIMPHCAGLGRLIACDLIGMGDSDKLDPSGPERYAYAEHRDYLDALWEALDLGDRVVLVVHDWGSALGFDWARRHRERVQGIAYMEAIAMPIEWADFPEQDRDLFQAFRSQAGEELVLQDNVFVEQVLPGLILRPLSEAEMAAYREPFLAAGEARRPTLSWPRQIPIAGTPADVVAIARDYAGWLSESPIPKLFINAEPGALTTGRMRDFCRTWPNQTEITVAGAHFIQEDSPDEIGAAIAAFVRRLRPA [D30A] | 51 °C | 0 °C |
| MSLGAKPFGEKKFIEIKGRRMAYIDEGTGVPILFQHGNPTSSYLWRNIMPHCAGLGRLIACDLIGMGDSDKLDPSGPERYAYAEHRDYLDALWEALDLGDRVVLVVHDWGSALGFDWARRHRERVQGIAYMEAIAMPIEWADFPEQDRDLFQAFRSQAGEELVLQDNVFVEQVLPGLILRPLSEAEMAAYREPFLAAGEARRPTLSWPRQIPIAGTPADVVAIARDYAGWLSESPIPKLFINAEPGALTTGRMRDFCRTWPNQTEITVAGAHFIQEDSPDEIGAAIAAFVRRLRPA [D30V] | 49 °C | -2 °C |
| MSLGAKPFGEKKFIEIKGRRMAYIDEGTGEPILFQHGNPTSSYLWRNIMPHCAGLGRLIACDLIGMGDSDKLDPSGPERYAYAEHRDYLDALWEALDLGDRVVLVVHDWGSALGFDWARRHRERVQGIAYMEAIAMPIEWADFPEQDRDLFQAFRSQAGEELVLQDNVFVEQVLPGLILRPLSEAEMAAYREPFLAAGEARRPTLSWPRQIPIAGTPADVVAIARDYAGWLSESPIPKLFINAEPGALTTGRMRDFCRTWPNQTEITVAGAHFIQEDSPDEIGAAIAAFVRRLRPA [D30E] | 51 °C | 0 °C |
| MSLGAKPFGEKKFIEIKGRLMAYIDEGTGDPILFQHGNPTSSYLWRNIMPHCAGLGRLIACDLIGMGDSDKLDPSGPERYAYAEHRDYLDALWEALDLGDRVVLVVHDWGSALGFDWARRHRERVQGIAYMEAIAMPIEWADFPEQDRDLFQAFRSQAGEELVLQDNVFVEQVLPGLILRPLSEAEMAAYREPFLAAGEARRPTLSWPRQIPIAGTPADVVAIARDYAGWLSESPIPKLFINAEPGALTTGRMRDFCRTWPNQTEITVAGAHFIQEDSPDEIGAAIAAFVRRLRPA [R20L] | 50 °C | -1 °C |
| MSLGAEPFGEKKFIEIKGRRMAYIDEGTGDPILFQHGNPTSSYLWRNIMPHCAGLGRLIACDLIGMGDSDKLDPSGPERYAYAEHRDYLDALWEALDLGDRVVLVVHDWGSALGFDWARRHRERVQGIAYMEAIAMPIEWADFPEQDRDLFQAFRSQAGEELVLQDNVFVEQVLPGLILRPLSEAEMAAYREPFLAAGEARRPTLSWPRQIPIAGTPADVVAIARDYAGWLSESPIPKLFINAEPGALTTGRMRDFCRTWPNQTEITVAGAHFIQEDSPDEIGAAIAAFVRRLRPA [K6E] | 51 °C | 0 °C |
| MCLGAKPFGEKKFIEIKGRRMAYIDEGTGDPILFQHGNPTSSYLWRCIMPHCAGLGRLIACDLIGMGDSDKLDPSGPERYAYAEHRDYLDALWEALDLGDRVVLVVHDWGSALGFDWARRHRERVQGIAYMEAIAMPIEWADFPEQDRDLFQAFRSQAGEELVLQDNVFVEQVLPGLILRPLSEAEMAAYREPFLAAGEARRPTLSWPRQIPIAGTPADVVAIARDYAGWLSESPIPKLFINAEPGALTTGRMRDFCRTWPNQTEITVAGAHFIQEDSPDEIGAAIAAFVRRLRPA [S2C N47C] | 48 °C | -3 °C |
| MSLGAKPFGEKKFIEIKGRRMAYIDVGTGDPILFQHGNPTSSYLWRNIMPHCAGLGRLIACDLIGMGDSDKLDPSGPERYAYAEHRDYLDALWEALDLGDRVVLVVHDWGSALGFDWARRHRERVQGIAYMEAIAMPIEWADFPEQDRDLFQAFRSQAGEELVLQDNVFVEQVLPGLILRPLSEAEMAAYREPFLAAGEARRPTLSWPRQIPIAGTPADVVAIARDYAGWLSESPIPKLFINAEPGALTTGRMRDFCRTWPNQTEITVAGAHFIQEDSPDEIGAAIAAFVRRLRPA [E26V] | 51 °C | 0 °C |
| MSLGAKPFGEKKFIEIKGRRMAYIDHGTGDPILFQHGNPTSSYLWRNIMPHCAGLGRLIACDLIGMGDSDKLDPSGPERYAYAEHRDYLDALWEALDLGDRVVLVVHDWGSALGFDWARRHRERVQGIAYMEAIAMPIEWADFPEQDRDLFQAFRSQAGEELVLQDNVFVEQVLPGLILRPLSEAEMAAYREPFLAAGEARRPTLSWPRQIPIAGTPADVVAIARDYAGWLSESPIPKLFINAEPGALTTGRMRDFCRTWPNQTEITVAGAHFIQEDSPDEIGAAIAAFVRRLRPA [E26H] | 50 °C | -1 °C |
| MSLGAKPFGEKKFIEIKGRRMAYIDQGTGDPILFQHGNPTSSYLWRNIMPHCAGLGRLIACDLIGMGDSDKLDPSGPERYAYAEHRDYLDALWEALDLGDRVVLVVHDWGSALGFDWARRHRERVQGIAYMEAIAMPIEWADFPEQDRDLFQAFRSQAGEELVLQDNVFVEQVLPGLILRPLSEAEMAAYREPFLAAGEARRPTLSWPRQIPIAGTPADVVAIARDYAGWLSESPIPKLFINAEPGALTTGRMRDFCRTWPNQTEITVAGAHFIQEDSPDEIGAAIAAFVRRLRPA [E26Q] | 51 °C | 0 °C |
| MSLGAKPFGEKKFIEIKGRRMAYIDRGTGDPILFQHGNPTSSYLWRNIMPHCAGLGRLIACDLIGMGDSDKLDPSGPERYAYAEHRDYLDALWEALDLGDRVVLVVHDWGSALGFDWARRHRERVQGIAYMEAIAMPIEWADFPEQDRDLFQAFRSQAGEELVLQDNVFVEQVLPGLILRPLSEAEMAAYREPFLAAGEARRPTLSWPRQIPIAGTPADVVAIARDYAGWLSESPIPKLFINAEPGALTTGRMRDFCRTWPNQTEITVAGAHFIQEDSPDEIGAAIAAFVRRLRPA [E26R] | 50 °C | -1 °C |
| MSLGAKPFGEKKFIEIKGRCMAYIDEGTGDPILFQHGNPTSSYLWRNIMPHCAGLGRLIACDLIGMGDSCKLDPSGPERYAYAEHRDYLDALWEALDLGDRVVLVVHDWGSALGFDWARRHRERVQGIAYMEAIAMPIEWADFPEQDRDLFQAFRSQAGEELVLQDNVFVEQVLPGLILRPLSEAEMAAYREPFLAAGEARRPTLSWPRQIPIAGTPADVVAIARDYAGWLSESPIPKLFINAEPGALTTGRMRDFCRTWPNQTEITVAGAHFIQEDSPDEIGAAIAAFVRRLRPA [R20C D70C] | 45.5 °C | -3.5 °C |
| MSSGAKPFGEKKFIEIKGRRMAYIDEGTGDPILFQHGNPTSSYLWRNIMPHCAGLGRLIACDLIGMGDSDKLDPSGPERYAYAEHRDYLDALWEALDLGDRVVLVVHDWGSALGFDWARRHRERVQGIAYMEAIAMPIEWADFPEQDRDLFQAFRSQAGEELVLQDNVFVEQVLPGLILRPLSEAEMAAYREPFLAAGEARRPTLSWPRQIPIAGTPADVVAIARDYAGWLSESPIPKLFINAEPGALTTGRMRDFCRTWPNQTEITVAGAHFIQEDSPDEIGAAIAAFVRRLRPA [L3S] | 50.5 °C | -0.5 °C |
| MSLGCKPFGEKKFIEIKGRRMAYIDEGTGDPILFQHGNPTSSYLWRNIMPHCAGLGRLIACDLIGMGDSDKLDPSGPERYAYAEHRDYLDALWEALDLGDRVVLVVHDWGSALGFDWARRHRERVQGIAYMEAIAMPIEWADFPEQDRDLFQAFRSQAGEELVLQDNVFVEQVLPGLILRPLSECEMAAYREPFLAAGEARRPTLSWPRQIPIAGTPADVVAIARDYAGWLSESPIPKLFINAEPGALTTGRMRDFCRTWPNQTEITVAGAHFIQEDSPDEIGAAIAAFVRRLRPA [A5C A185C] | 56 °C and 55.5 °C | 5 °C and 6.5 °C |
| MSLGLKPFGEKKFIEIKGRRMAYIDEGTGDPILFQHGNPTSSYLWRNIMPHCAGLGRLIACDLIGMGDSDKLDPSGPERYAYAEHRDYLDALWEALDLGDRVVLVVHDWGSALGFDWARRHRERVQGIAYMEAIAMPIEWADFPEQDRDLFQAFRSQAGEELVLQDNVFVEQVLPGLILRPLSEAEMAAYREPFLAAGEARRPTLSWPRQIPIAGTPADVVAIARDYAGWLSESPIPKLFINAEPGALTTGRMRDFCRTWPNQTEITVAGAHFIQEDSPDEIGAAIAAFVRRLRPA [A5L] | 50 °C | -1 °C |
| MSLGEKPFGEKKFIEIKGRRMAYIDEGTGDPILFQHGNPTSSYLWRNIMPHCAGLGRLIACDLIGMGDSDKLDPSGPERYAYAEHRDYLDALWEALDLGDRVVLVVHDWGSALGFDWARRHRERVQGIAYMEAIAMPIEWADFPEQDRDLFQAFRSQAGEELVLQDNVFVEQVLPGLILRPLSEAEMAAYREPFLAAGEARRPTLSWPRQIPIAGTPADVVAIARDYAGWLSESPIPKLFINAEPGALTTGRMRDFCRTWPNQTEITVAGAHFIQEDSPDEIGAAIAAFVRRLRPA [A5E] | 51.5 °C | 0.5 °C |
| MSLGAKPFGEKKFITIKGRRMAYIDEGTGDPILFQHGNPTSSYLWRNIMPHCAGLGRLIACDLIGMGDSDKLDPSGPERYAYAEHRDYLDALWEALDLGDRVVLVVHDWGSALGFDWARRHRERVQGIAYMEAIAMPIEWADFPEQDRDLFQAFRSQAGEELVLQDNVFVEQVLPGLILRPLSEAEMAAYREPFLAAGEARRPTLSWPRQIPIAGTPADVVAIARDYAGWLSESPIPKLFINAEPGALTTGRMRDFCRTWPNQTEITVAGAHFIQEDSPDEIGAAIAAFVRRLRPA [E15T] | 52 °C | 1 °C |
| MSLGAKPFGEKKFIEIKGRRMAYIDEGTGDPILFVHGNPTSSYLWRNIMPHCAGLGRLIACDLIGMGDSDKLDPSGPERYAYAEHRDYLDALWEALDLGDRVVLVVHDWGSALGFDWARRHRERVQGIAYMEAIAMPIEWADFPEQDRDLFQAFRSQAGEELVLQDNVFVEQVLPGLILRPLSEAEMAAYREPFLAAGEARRPTLSWPRQIPIAGTPADVVAIARDYAGWLSESPIPKLFINAEPGALTTGRMRDFCRTWPNQTEITVAGAHFIQEDSPDEIGAAIAAFVRRLRPA [Q35V] | 48.5 °C | -2.5 °C |
| MSLGAKPFGEKKFIEIKGRRMAYIDEGTGDPILFLHGNPTSSYLWRNIMPHCAGLGRLIACDLIGMGDSDKLDPSGPERYAYAEHRDYLDALWEALDLGDRVVLVVHDWGSALGFDWARRHRERVQGIAYMEAIAMPIEWADFPEQDRDLFQAFRSQAGEELVLQDNVFVEQVLPGLILRPLSEAEMAAYREPFLAAGEARRPTLSWPRQIPIAGTPADVVAIARDYAGWLSESPIPKLFINAEPGALTTGRMRDFCRTWPNQTEITVAGAHFIQEDSPDEIGAAIAAFVRRLRPA [Q35L] | 48.5 °C | -2.5 °C |
| MSLGAKPFGEKKFIEIKGRRMAYIDEGTGDPILFIHGNPTSSYLWRNIMPHCAGLGRLIACDLIGMGDSDKLDPSGPERYAYAEHRDYLDALWEALDLGDRVVLVVHDWGSALGFDWARRHRERVQGIAYMEAIAMPIEWADFPEQDRDLFQAFRSQAGEELVLQDNVFVEQVLPGLILRPLSEAEMAAYREPFLAAGEARRPTLSWPRQIPIAGTPADVVAIARDYAGWLSESPIPKLFINAEPGALTTGRMRDFCRTWPNQTEITVAGAHFIQEDSPDEIGAAIAAFVRRLRPA [Q35I] | 50.5 °C | -0.5 °C |
